From publication PMC3536758

Molecular target: T1, MBP-ComKBco (Bacillus coagulans DSM 1) (UniProt K4MVI2)
T1 sequence: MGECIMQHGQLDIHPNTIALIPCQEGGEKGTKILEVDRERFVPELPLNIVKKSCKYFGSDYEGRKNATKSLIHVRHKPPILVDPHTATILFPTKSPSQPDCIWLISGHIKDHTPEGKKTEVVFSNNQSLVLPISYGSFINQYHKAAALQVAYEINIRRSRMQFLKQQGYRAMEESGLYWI
Assay: EMSA
Conditions: EMSA: binding buffer (composition not given) with poly(dI-dC), premixed on ice, 20 min at 30 C; 6% polyacrylamide gel in 1x TBE, 90 V, 60 min; pH and salt not …

## ACGGGTACCATTTGCCGGAAATCGACGTGCCGGCAGCAGGACATAAAAGTGACCCGGTCGCAATAAAGGGGCAATAAGTTTTCGGCATGTTCATCCTTGCCATTACATATGCTTAATATCGCCCGTTGCTTGCCGGTAGCGAACCAAGAAAATACCATATGCTGAAAGATCAGAGGGATCAAACATGCATGGATTATGGACAGCTTATTTTGCGGGGCCCCGT (double strand) [comCBco promoter]
  binding: binds more weakly
